Measurements: patent US7348407 (dated 2008)

What was measured:
[1] = target: T1, his-tagged wild-type JMY (pET-JMY, bacterially expressed) (UniProt Q9QXM1 1-983); assay: in vitro translated STRAP derivative binding to his-tagged wild-type JMY
T1 construct: also called His-JMY; purified recombinant JMY; not shown: His tag from pET28a

[2] = target: T2, Flag-tagged full-length p300 (baculovirus expressed, on M2-anti-flag antibody agarose) (UniProt Q09472 2-2414, limits assumed); assay: in vitro translated STRAP derivative binding to flag-tagged wild-type p300 on anti-flag agarose
T2 construct: mature; also called flag-p300; flag-tagged wild-type p300; not shown: Flag tag
T2 sequence (Q09472 2-2414 limits assumed): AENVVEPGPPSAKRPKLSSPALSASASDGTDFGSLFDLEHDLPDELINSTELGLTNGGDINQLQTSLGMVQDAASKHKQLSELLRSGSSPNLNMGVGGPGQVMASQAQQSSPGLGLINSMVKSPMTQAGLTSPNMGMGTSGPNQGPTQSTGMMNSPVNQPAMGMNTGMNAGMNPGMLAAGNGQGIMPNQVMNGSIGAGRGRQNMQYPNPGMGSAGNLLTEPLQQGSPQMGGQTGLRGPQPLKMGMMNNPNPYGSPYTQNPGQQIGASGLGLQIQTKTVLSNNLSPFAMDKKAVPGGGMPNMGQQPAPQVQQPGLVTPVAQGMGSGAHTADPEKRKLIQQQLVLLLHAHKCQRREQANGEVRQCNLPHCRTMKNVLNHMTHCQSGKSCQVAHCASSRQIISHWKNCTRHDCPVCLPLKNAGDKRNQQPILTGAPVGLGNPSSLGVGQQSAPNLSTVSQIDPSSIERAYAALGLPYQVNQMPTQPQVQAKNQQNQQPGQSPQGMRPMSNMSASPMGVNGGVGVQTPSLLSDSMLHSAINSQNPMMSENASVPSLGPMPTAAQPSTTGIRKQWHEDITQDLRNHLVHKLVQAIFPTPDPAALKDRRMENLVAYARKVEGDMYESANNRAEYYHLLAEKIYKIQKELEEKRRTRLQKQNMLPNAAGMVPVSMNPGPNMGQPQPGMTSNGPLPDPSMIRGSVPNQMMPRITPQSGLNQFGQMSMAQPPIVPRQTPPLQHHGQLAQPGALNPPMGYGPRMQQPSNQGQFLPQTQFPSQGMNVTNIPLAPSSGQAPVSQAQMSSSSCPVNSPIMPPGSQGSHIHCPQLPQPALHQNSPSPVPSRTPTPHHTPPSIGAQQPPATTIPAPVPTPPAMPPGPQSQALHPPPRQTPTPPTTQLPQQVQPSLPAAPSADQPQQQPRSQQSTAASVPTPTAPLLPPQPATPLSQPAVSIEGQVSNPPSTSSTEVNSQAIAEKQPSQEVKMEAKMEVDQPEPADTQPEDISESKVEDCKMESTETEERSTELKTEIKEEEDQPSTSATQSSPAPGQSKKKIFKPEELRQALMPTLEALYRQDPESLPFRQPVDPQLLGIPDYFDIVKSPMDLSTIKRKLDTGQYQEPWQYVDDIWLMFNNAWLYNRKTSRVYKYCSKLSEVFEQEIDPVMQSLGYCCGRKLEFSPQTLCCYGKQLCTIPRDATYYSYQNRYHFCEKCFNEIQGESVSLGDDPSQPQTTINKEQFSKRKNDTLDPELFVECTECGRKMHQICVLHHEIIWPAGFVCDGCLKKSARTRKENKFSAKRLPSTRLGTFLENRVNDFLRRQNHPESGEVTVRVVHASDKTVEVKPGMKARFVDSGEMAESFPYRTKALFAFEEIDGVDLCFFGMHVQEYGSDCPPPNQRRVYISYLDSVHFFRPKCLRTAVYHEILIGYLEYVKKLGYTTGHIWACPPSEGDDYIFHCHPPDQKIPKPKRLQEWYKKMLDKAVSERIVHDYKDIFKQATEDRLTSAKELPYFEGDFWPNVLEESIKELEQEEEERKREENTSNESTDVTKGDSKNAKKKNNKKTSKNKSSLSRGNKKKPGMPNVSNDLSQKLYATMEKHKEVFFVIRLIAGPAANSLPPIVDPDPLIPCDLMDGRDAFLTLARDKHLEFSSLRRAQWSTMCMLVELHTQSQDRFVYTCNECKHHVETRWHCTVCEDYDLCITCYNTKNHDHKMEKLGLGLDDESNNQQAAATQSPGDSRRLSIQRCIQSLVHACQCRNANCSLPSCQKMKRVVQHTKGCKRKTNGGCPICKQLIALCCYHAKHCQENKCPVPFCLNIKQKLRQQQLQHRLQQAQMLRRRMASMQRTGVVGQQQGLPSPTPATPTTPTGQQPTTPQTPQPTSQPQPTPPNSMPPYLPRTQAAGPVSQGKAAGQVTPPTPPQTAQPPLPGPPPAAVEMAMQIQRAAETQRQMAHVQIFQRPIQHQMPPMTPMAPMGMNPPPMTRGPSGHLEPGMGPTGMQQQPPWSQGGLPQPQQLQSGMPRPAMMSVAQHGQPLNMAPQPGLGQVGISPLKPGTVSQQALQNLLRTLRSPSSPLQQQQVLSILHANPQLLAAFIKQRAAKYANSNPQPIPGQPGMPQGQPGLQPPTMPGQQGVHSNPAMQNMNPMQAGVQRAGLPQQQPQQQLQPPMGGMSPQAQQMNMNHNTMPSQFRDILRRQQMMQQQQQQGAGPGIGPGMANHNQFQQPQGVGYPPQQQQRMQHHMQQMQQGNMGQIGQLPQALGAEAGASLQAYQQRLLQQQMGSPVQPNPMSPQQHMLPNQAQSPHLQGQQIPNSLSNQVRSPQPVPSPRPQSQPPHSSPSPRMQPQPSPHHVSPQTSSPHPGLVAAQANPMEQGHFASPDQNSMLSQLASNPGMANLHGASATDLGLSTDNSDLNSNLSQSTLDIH

[3] = target: T2, Flag-tagged full-length p300 …; assay: biochemical binding assay with a panel of p300 derivatives
[4] = target: T3, JMY683-983 (pCMV-HA-JMY683-983, in vitro translated) (UniProt Q9QXM1 683-983); assay: in vitro translated JMY derivatives tested for binding to STRAP
T3 sequence (looked up): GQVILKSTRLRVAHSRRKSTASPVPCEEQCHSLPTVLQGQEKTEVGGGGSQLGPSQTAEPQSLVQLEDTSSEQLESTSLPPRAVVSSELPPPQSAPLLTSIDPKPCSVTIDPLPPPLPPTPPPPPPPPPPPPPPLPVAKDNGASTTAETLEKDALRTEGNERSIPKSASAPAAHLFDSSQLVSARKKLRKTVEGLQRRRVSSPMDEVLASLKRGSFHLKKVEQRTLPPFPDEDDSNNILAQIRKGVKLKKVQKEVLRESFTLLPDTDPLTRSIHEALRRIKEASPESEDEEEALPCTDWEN

[5] = target: JMY1-119 (pCMV-HA-JMY1-119, in vitro translated) (UniProt Q9QXM1 1-119); assay: as above
[6] = target: T1, his-tagged wild-type JMY (pET-JMY, …); assay: summary of the biochemical binding assays
[7] = target: T2, Flag-tagged full-length p300 …; assay: biochemical binding assay with STRAP derivatives (summary in FIG. 7)
[8] = target: T1, his-tagged wild-type JMY (pET-JMY, …); assay: as above
[9] = target: p300 (pCMV-p300, expressed in transfected cells) (UniProt Q09472 1-2414); assay: co-immunoprecipitation from STRAP expressing U2OS cells treated with etoposide, against untreated cells
p300 (pCMV-p300, expressed in transfected cells), sequence (Q09472 whole entry): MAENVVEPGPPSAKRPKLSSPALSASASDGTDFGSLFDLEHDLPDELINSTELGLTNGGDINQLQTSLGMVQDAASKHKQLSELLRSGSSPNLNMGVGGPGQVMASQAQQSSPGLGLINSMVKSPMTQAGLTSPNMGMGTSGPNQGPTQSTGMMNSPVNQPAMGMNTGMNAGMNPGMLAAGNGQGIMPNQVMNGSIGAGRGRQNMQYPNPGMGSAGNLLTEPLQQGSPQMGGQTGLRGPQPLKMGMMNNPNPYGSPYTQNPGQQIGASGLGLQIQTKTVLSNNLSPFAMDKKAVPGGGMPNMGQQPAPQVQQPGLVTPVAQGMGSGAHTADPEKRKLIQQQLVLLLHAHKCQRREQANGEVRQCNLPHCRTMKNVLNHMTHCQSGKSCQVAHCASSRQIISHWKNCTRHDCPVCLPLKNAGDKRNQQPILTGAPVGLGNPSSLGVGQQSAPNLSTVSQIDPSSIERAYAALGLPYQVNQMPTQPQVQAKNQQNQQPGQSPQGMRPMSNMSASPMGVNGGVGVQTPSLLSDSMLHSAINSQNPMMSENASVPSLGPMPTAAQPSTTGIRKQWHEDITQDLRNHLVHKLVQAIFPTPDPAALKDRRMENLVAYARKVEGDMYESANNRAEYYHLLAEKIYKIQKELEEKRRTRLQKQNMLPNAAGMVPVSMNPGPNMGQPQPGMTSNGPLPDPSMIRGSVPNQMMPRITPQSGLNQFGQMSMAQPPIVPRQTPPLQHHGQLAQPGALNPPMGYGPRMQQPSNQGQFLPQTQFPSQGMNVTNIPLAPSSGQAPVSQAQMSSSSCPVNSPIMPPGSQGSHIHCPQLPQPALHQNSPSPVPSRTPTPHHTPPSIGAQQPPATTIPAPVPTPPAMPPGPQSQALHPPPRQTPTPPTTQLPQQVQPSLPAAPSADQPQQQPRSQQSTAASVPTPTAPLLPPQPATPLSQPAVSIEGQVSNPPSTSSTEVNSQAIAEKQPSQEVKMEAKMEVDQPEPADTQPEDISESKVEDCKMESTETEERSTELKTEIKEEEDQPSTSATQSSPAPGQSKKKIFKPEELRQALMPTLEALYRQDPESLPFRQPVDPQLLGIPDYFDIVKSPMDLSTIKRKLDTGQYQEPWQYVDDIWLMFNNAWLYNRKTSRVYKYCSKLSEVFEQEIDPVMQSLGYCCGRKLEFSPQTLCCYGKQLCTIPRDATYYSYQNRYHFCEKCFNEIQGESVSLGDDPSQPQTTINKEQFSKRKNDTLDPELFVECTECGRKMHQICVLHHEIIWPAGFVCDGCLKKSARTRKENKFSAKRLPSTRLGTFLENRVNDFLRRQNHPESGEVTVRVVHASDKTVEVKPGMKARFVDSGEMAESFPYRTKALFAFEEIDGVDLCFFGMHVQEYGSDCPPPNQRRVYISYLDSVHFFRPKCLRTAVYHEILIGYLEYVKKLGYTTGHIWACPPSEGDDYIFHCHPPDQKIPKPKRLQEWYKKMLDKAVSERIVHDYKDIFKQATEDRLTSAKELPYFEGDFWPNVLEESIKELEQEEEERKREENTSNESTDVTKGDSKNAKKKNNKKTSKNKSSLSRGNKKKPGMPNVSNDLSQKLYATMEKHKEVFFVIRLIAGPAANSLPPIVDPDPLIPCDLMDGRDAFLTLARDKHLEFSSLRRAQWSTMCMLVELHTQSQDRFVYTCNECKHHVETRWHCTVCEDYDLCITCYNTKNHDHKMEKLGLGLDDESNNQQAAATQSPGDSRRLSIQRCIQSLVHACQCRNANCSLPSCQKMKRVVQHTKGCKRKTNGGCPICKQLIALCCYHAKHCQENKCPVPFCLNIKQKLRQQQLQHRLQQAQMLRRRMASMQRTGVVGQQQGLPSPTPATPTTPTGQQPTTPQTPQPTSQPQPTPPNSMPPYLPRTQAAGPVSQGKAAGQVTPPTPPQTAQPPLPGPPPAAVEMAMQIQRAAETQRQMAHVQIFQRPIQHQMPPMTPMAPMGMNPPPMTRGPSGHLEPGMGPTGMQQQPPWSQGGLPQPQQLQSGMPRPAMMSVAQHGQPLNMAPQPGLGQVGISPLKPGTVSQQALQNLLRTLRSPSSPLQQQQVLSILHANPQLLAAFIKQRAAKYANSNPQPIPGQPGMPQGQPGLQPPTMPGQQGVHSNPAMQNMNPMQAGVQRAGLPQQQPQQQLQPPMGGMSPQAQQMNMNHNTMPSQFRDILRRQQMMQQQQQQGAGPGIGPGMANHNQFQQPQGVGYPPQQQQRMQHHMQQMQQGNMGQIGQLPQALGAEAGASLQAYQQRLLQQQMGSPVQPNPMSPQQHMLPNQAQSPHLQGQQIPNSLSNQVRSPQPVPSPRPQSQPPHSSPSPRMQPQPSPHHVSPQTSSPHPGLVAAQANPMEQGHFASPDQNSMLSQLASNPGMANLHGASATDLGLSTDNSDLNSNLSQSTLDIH

[10] = target: T2, Flag-tagged full-length p300 …; assay: binding properties of the STRAP mutant derivative
[11] = target: T1, his-tagged wild-type JMY (pET-JMY, …); assay: binding properties of the STRAP mutant derivative

B1: STRAP123-205 (other, not shown: small tags and cut ends)
chain: HTCFSGALTHCKNKVSLQNLSMVLRQLQTDSGDEHSRHVMDSVRQAKLAVQMDVLDGRSWYILGNAYLSLYFNTGQNPKISQQ
notes: In vitro translated
**Q.** Does B1 bind [1]?
**A.** binds

B2: STRAP206-438 (other, not shown: small tags and cut ends)
chain: ALSAYAQAEKVDRKASSNPDLHLNRATLHKYEESYGEALEGFSQAAALDPAWPEPQQREQQLLEFLSRLTSLLESKGKTKPKKLQSMLGSLRPAHLGPCGDGRYQSASGQKMTLELKPLSTLQPGVNSGTVVLGKVVFSLTTEEKVPFTFGLVDSDGPCYAVMVYNVVQSWGVLIGDSVAIPEPNLRHHQIRHKGKDYSFSSVRVETPLLLVVNGKPQNSSSQASATVASRPQ
notes: In vitro translated
**Q.** Does B2 bind [1]?
**A.** binds

**Q.** Does B2 bind [2]?
**A.** binds

B3: STRAP (construct not stated for the experiment) (other)
chain: EAKHVLQKLQGLVDRLYCFRDSYFETHSVEDAGRKQQDVQEEMEKTLQQMEEVLGSAQVEAQALMLKGKALNVTPDYSPEAEVLLSKAVKLEPELVEAWNQLGEVYWKKGDVTSAHTCFSGALTHCKNKVSLQNLSMVLRQLQTDSGDEHSRHVMDSVRQAKLAVQMDVLDGRSWYILGNAYLSLYFNTGQNPKISQQALSAYAQAEKVDRKASSNPDLHLNRATLHKYEESYGEALEGFSQAAALDPAWPEPQQREQQLLEFLSRLTSLLESKGKTKPKKLQSMLGSLRPAHLGPCGDGRYQSASGQKMTLELKPLSTLQPGVNSGTVVLGKVVFSLTTEEKVPFTFGLVDSDGPCYAVMVYNVVQSWGVLIGDSVAIPEPNLRHHQIRHKGKDYSFSSVRVETPLLLVVNGKPQNSSSQASATVASRPQ
notes: also called 60,000 molecular weight STRAP polypeptide
**Q.** Does B3 bind [3]?
**A.** binds

**Q.** Does B3 bind [4]?
**A.** binds

**Q.** Does B3 bind [5]?
**A.** binds

**Q.** Does B3 bind [6]?
**A.** binds

B4: STRAP8-123 (other)
chain: EAKHVLQKLQGLVDRLYCFRDSYFETHSVEDAGRKQQDVQEEMEKTLQQMEEVLGSAQVEAQALMLKGKALNVTPDYSPEAEVLLSKAVKLEPELVEAWNQLGEVYWKKGDVTSAH
notes: A pET form also exists; not shown: HA tag (pCMV-HA, in vitro translated) or His tag (pET28C, purified)
**Q.** Does B4 bind [7]?
**A.** no binding

**Q.** Does B4 bind [8]?
**A.** binds

B5: JMY (pCMV-JMY, expressed in transfected cells) (other, UniProt Q9QXM1 1-983, looked up)
chain: MSFALEETLESDWVAVRPHVFDEREKHKFVFIVAWNEIEGKFAITCHNRTAQRQRSGSREQAGTPASDGSRGPGSPAARGRSEAAASATAALRSPGPRKSQAWAEGGSPRSARSLKGDPPRGPAGRGPESPLRSPARAKASPLRRSAESRDAIASATPVPPAPPVPPVSSVRVVSASGAVSEEIEVLEMVREDEAPQPLPDSEQPPSAAELESSAEECSWAGLFSFQDLRAVHQQLCSVNSQLEPCLPVFPEEPSGMWTVLFGGAPEMTEQEIDALCYQLQVYLGHGLDTCGWKILSQVLFTETDDPEEYYESLSELRQKGYEEVLQRARRRIQELLDKHKTIESMVELLDLYQMEDEAYSSLAEATTELYQYLLQPFRDMRELAMLRRQQIKISMENDYLGPRRIESLQKEDADWQRKAHMAVLSIQDLTVKYFEITAKAQKAVYDRMRADQKKFGKASWAAAAERMEKLQYAVSKETLQMMRAKEICLEQKKHALKEEMQSLQGGTEAIARLDQLESDYYDLQLQLYEVQFEILKCEELLLTAQLESIKRLISEKRDEVVYYDTYESMEAMLEKEEMAASVHAQREELQKLQQKARQLEARRGRVSAKKAYLRNKKEICIAKHHEKFQQRFQSEDEYRAHHTIQIKRDKLHDEEERKSAWVSQERQRTLDRLRTFKQRYPGQVILKSTRLRVAHSRRKSTASPVPCEEQCHSLPTVLQGQEKTEVGGGGSQLGPSQTAEPQSLVQLEDTSSEQLESTSLPPRAVVSSELPPPQSAPLLTSIDPKPCSVTIDPLPPPLPPTPPPPPPPPPPPPPPLPVAKDNGASTTAETLEKDALRTEGNERSIPKSASAPAAHLFDSSQLVSARKKLRKTVEGLQRRRVSSPMDEVLASLKRGSFHLKKVEQRTLPPFPDEDDSNNILAQIRKGVKLKKVQKEVLRESFTLLPDTDPLTRSIHEALRRIKEASPESEDEEEALPCTDWEN
notes: also called JMY co-factor; wild-type JMY
**Q.** With B5 as the binder, how does the “fold increase in the level of co-immunoprecipitated JMY with p300” value [9] read?
**A.** ~10 fold

B6: STRAP8-205 (other, not shown: small tags and cut ends)
chain: EAKHVLQKLQGLVDRLYCFRDSYFETHSVEDAGRKQQDVQEEMEKTLQQMEEVLGSAQVEAQALMLKGKALNVTPDYSPEAEVLLSKAVKLEPELVEAWNQLGEVYWKKGDVTSAHTCFSGALTHCKNKVSLQNLSMVLRQLQTDSGDEHSRHVMDSVRQAKLAVQMDVLDGRSWYILGNAYLSLYFNTGQNPKISQQ
**Q.** Which results are given for B6?
**A.** binding result [10]: no binding; binding result [11]: binds
